The target in this assay is AG-tagged DDB1 (DNA damage-binding protein 1) (human) (UniProt Q16531). Description: Fluoppi.
Chain of UniProt Q16531 (Q16531 whole entry): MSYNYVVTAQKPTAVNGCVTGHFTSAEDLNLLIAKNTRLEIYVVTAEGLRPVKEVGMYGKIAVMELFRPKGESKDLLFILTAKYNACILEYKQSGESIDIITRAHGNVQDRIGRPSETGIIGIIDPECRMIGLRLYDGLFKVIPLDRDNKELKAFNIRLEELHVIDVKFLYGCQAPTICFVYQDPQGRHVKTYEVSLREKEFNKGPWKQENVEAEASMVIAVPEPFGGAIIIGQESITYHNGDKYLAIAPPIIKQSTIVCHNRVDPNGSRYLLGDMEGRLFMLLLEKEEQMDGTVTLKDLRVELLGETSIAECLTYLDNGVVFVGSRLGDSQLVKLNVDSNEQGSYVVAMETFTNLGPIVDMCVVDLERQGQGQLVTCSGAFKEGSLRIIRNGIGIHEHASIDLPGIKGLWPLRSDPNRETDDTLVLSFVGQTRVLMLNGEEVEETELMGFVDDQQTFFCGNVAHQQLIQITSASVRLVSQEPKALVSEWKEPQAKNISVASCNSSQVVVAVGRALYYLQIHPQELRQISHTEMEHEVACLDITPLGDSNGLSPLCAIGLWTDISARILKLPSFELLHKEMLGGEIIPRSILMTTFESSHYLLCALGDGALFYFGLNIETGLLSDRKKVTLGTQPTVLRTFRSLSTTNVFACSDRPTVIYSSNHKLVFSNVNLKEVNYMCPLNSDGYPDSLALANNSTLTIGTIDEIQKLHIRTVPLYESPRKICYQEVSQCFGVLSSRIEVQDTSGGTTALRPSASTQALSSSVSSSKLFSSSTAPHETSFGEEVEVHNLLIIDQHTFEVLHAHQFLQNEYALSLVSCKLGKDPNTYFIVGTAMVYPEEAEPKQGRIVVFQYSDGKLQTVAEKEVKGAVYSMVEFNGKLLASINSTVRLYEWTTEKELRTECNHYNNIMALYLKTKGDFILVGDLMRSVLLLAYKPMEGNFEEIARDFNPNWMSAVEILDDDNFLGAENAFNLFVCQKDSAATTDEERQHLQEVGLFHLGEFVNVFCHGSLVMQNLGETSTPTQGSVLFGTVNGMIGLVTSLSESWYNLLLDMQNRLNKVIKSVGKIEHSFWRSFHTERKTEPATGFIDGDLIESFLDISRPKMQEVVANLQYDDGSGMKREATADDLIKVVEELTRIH

In turn, “Ash-tagged hepatitis B virus X protein (full-length HBx, wild type) (natural protein)” had a percent of fluorescent puncta left with NTZ of 50%.

The record behind these values is PMC8056151.
